System: MS2 coat protein
Test: apparent KD of MS2 coat protein; designed switch direction (-1 OFF switch, 1 ON switch): -1; higher = weaker reporter binding
Summary of the method: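 For each design, the apparent KD is the median over clusters of curves fitted to normalised cluster fluorescence. Clusters held RNA switches with common flanks, transcribed on Illumina chips by stalled E. coli RNA polymerase. These were titrated with SNAP-549-labelled MS2 coat protein, doubling from 0.7 or 1.5 nM to 3 µM, without input, with 200 uM small-molecule ligand, or with an oligonucleotide input.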

[1] = Eterna round: R95, input ligand: microRNA oligo, concentration not stated
[2] = input ligand: microRNA oligo, concentration not stated
[3] = Eterna round: R95, input ligand: FMN 200 uM
[4] = Eterna round: R95, input ligand: none

Row | Sequence | apparent KD of MS2 coat protein (input ligand: FMN 200 uM) | apparent KD of MS2 coat protein (input ligand: none) | apparent KD of MS2 coat protein [1] | apparent KD of MS2 coat protein [2] | apparent KD of MS2 coat protein [3] | apparent KD of MS2 coat protein [4]
1 | GUAUGUGGUAAGGAUAUGCAUAAAACCCGCUCCGCAGAAGGUACCACAUGAGGAUCACCCAUGUGAUACCAAUA [EX6 A.16] (Eterna round: R97, puzzle: Exclusion 6) | 16.1 nM | 14.3 nM |  |  |  | 
2 | UUUCUCGUUGUGAGGAUAUCGUUUUUGUUUUGGAUCGAGAAGGCACAUGAGGAUCACCCAUGUUUGUUGUGGUU [JR_BMOE4_Sub088] (puzzle: Brourd's mod of Exclusion 4) |  |  | 93.3 nM |  |  | 
3 | UUAUACGUUGAGGAUAUGCGAAUUAGUAUAGUUGCAGAAGGCGAUACAUGAGGAUCACCCAUGUUCAUGGGCAU [LRO-Ex6-05] (puzzle: Exclusion 6) |  |  | 135 nM |  |  | 
4 | CUUAUGUCAGGAUAUUAGUAGUAAAUAAAUAAAAUUAUUACUGAGAAGGGACAUGAGGAUCACCCAUGUUCCUC [Salish 062 v4] (Eterna round: R97, puzzle: Exclusion 4) | 96 nM | 23.9 nM |  |  |  | 
5 | UAUAUGUCAGGAUAUCGAUUAGUACGGGAUUCGGUACUGGUUGAGAAGGGACAUGAGGAUCACCCAUGUUUUUC [EX4 #69] (Eterna round: R97, puzzle: Exclusion 4) | 284 nM | 36.5 nM |  |  |  | 
6 | UUAAUGUGAGGAUAUCAGGUGUGCUAGAGUACUGGUACAUCUGAGAAGGCACAUGAGGAUCACCCAUGUUCUUC [Mat - Exclusion 4 - Mod of JL - D54] (puzzle: Exclusion 4) |  |  | 34.3 nM |  |  | 
7 | CCAGGCUGUGUGAGGAUAUGCUGGUCCUUGGAUCAGCAGAAGGCACAUGAGGAUCACCCAUGUGAGUAGCUUGG [JL bmx4 3.27] (puzzle: Brourd's mod of Exclusion 4) |  |  | 15.7 nM |  |  | 
8 | CAGCUGAAAGUCAGGAUAUCUAGAGCCUCGGCUCUAGAGAAGGGACAUGAGGAUCACCCAUGUGGUCACAGCUG [BmEx4/5-A2] (Eterna round: R97, puzzle: Brourd's mod of Exclusion 4) | 93.5 nM | 619 nM |  |  |  | 
9 | AAUAAAGGCCGAGGAUAUCGGAAAGGAAGUGUACGAGAAGGUGGCAAAAGAACAUGAGGAUCACCCAUGUGGGCCGAUCUUCCG [PowerStrip EXNG 1.4] (Eterna round: R96, puzzle: Exclusion NG 1) | 33.3 nM | 29.9 nM |  | 28.8 nM |  | 
10 | AGAAAUCUGUAGGAUAUGUUGAACACCGUGUACACAGAAGGGCAGACAUGAGGAUCACCCAUGUGGUGGGCCAG [Eternabot (L1) Solution 91] (Eterna round: R97, puzzle: Exclusion 6) | 576 nM | 469 nM |  |  |  | 
11 | UACAUGAGGAUCACCCAUGUUUUGUCGUGUAUGGUAUUUAUCUAGGAUAUCAAUUUAGUUAUGUAUGAGAAGGAGAAUAUUAAU [JMF's solution 78] (Eterna round: R96, puzzle: Exclusion NG 3) | 43.7 nM | 46.4 nM |  | 33.9 nM |  | 
12 | AAAGUGCUGCGAGGAUAUACAUGAGGAUCACCCAUGUGGAUGUCUGAGGCAAAGCCUCAGACAAUGUAGAAGGCGCAGUACUAA [Mat - Exclusion NG 2 - Mod of JL - D56] (Eterna round: R96, puzzle: Exclusion NG 2) | 87.3 nM | 27 nM |  | 18.2 nM |  | 
13 | CAUACUCAAGUCAGGAUAUAGAGUCGGAUACGGAUCUAGAAGGGACAUGAGGAUCACCCAUGUAGAGAGUAAAG [EX-4 Malc #25] (puzzle: Brourd's mod of Exclusion 4) |  |  | 38 nM |  | 88 nM | 21.1 nM
14 | AAUUGACGCCAAAUAUACAACAUGAGGAUCACCCAUGUACCCUAGGUACGCUCGCAGGCAAGCUUUGCUCGUCCACA [Eternabot (L1) Solution 33] (Eterna round: R97, puzzle: Sensor, turn-off variant 1) | 40.2 nM | 47.9 nM |  |  |  | 
15 | AGCUGAGCAGGAUAUACAUGAGGAUCACCCAUGUUGGUCAAGCGACGAUAGUCGCAAUGUAGAAGGGCUCAGCU [E3/8-D2] (Eterna round: R97, puzzle: Exclusion 3) | 114 nM | 357 nM |  |  |  | 
16 | AAUUAGUAUGUGAGGAUAUUGAUGUAAUGACGGUUUAAGAAGGCACAUGAGGAUCACCCAUGUAGGUGCUCACG [JR_BMEx4_Sub007] (Eterna round: R97, puzzle: Brourd's mod of Exclusion 4) | 380 nM | 70.4 nM |  |  |  | 
17 | CCAUUCAGAGGAUAUGCGAAUAAAUAAAACUUUUUUUUUUAACAUGAGGAUCACCCAUGUAGAAGGCUGUAACC [Ex2 #44] (Eterna round: R97, puzzle: Exclusion 2) | 31.4 nM | 27.6 nM |  |  |  | 
18 | ACCUCCGCGAAGGAUAUUAGCACAUUGACAGAUUGAGAAGGUCGCACAUGAGGAUCACCCAUGUGAGGUCAUCC [Eternabot (L1) Solution 82] (Eterna round: R97, puzzle: Exclusion 6) | 19.3 nM | 21.5 nM |  |  |  | 
19 | UUUUAACAUGAGGAUCACCCAUGUGAGGAUAUCGAAAUUUAUAUUUAUAUUAAUUUAUCGAGAAGGCACAUUUU [JMF 88] (puzzle: Exclusion 1) |  |  | 166 nM |  |  | 
20 | UUAUGAGAGCAGGAUAUCUUAUAUUUUUUUUAAAGAGAAGGGCUCACAUGAGGAUCACCCAUGUGGUCCUAGAU [LRO-Excl6-21-mod of 4.86 by jal] (Eterna round: R97, puzzle: Exclusion 6) | 234 nM | 36.8 nM |  |  |  | 
21 | GUAUAGUGAGUCAGGAUAUUAGAGGACCAGUUUCCUAAGAAGGGACAUGAGGAUCACCCAUGUGCAUAGGACGU [Eternabot (Original) Solution 20] (Eterna round: R97, puzzle: Brourd's mod of Exclusion 4) | 20.7 nM | 23 nM |  |  |  | 
22 | AGGUGCUUCUGGAGACAUGAGGAUCACCCAUGUCGAGUCAGCGAGGAUAUCGGUAAGGCAUGUGAUGAGAAGGCGCAGACCGAU [Ex NG3 #51] (Eterna round: R96, puzzle: Exclusion NG 3) | 33.7 nM | 26.4 nM |  | 20.3 nM |  | 
23 | GCCCAGCUAGGAUAUCGCACUGCAGACAUGAGGAUCACCCAUGUGAUGAGGUCUGAAUUCCGAGAAGGAGCAUGGA [Isedzaqu] (puzzle: Exclusion 5) |  |  | 22.1 nM |  | 66.6 nM | 26.7 nM
24 | UCGUCGUCGUCAGGAUAUAGUCUUAUUGUUAUGCUUUUGUUCGUACAUGAGGAUCACCCAUGUGGCUAGAAGGGACUAAAGUUU [JR_ExcNG2_Sub017] (Eterna round: R96, puzzle: Exclusion NG 2) | 19.3 nM | 23 nM |  | 17.2 nM |  | 
25 | AAAAUGUGAGGAUAUCCAAUAUAUGACAUGAGGAUCACCCAUGUUUCCACUCGUACCUCCGGAGAAGGCACUAAAA [Ex5 #42] (Eterna round: R97, puzzle: Exclusion 5) | 21.9 nM | 29 nM |  |  |  | 
26 | CAAAAGGUAGGAUAUUAUGCCUGUAACAUGAGGAUCACCCAUGUGGUCCGAGACGGAGUUUAAGAAGGACCGAAAA [Masomariat] (puzzle: Exclusion 5) |  |  | 169 nM |  | 895 nM | 190 nM
